Measured values taken from US20100129369A1 (Eli Lilly, published 2010).

Legend:
Rat c-Met-Flis-Fc ECD = molecular target: T1, Rat c-Met-Flis-Fc ECD (rat); test: SPR (Biacore), antibody captured
T1 construct: also called Rat cMet-ECD-Fc-Flis; rat c-Met ECD
Description: A Biacore® 2000 instrument is used to measure the binding kinetics of c-Met antibodies to human, cynomolgus monkey, and rat c-Met ECDs. Measurements are performed at 25° C. Samples are dissolved in HBS-EP buffer (150 mM sodium chloride, 3 mM EDTA, 0.005% (w/v) surfactant P-20, and 10 mM N-2-hydroxyethylpiperazine-N′-2-ethanesulfonic acid (HEPES) at pH 7.4; #BR-1001-88).
Binding is evaluated using multiple cycles. Each cycle is performed at a flow rate of 50 μL/min., and consists of the following steps: injection of about 10 μL of a c-Met antibody at 10 μg/mL aiming at a capture of 40-100 RUs, injection of 250 μL of human, cynomolgus, or rat c-Met-Flis-Fc ECD (starting at 100 nM and using two-fold serial dilutions for each cycle) followed by 20 min. for dissociation, and regeneration using about 30 μL of 10 mM glycine hydrochloride, pH 1.5. Association and dissociation rates for each cycle are evaluated using a “1:1 (Langmuir) binding” model in the BIAevaluation software, version 4.1.

Human c-Met-Flis-Fc ECD = molecular target: T2, Human c-Met-Flis-Fc ECD (human); test: ELISA, coated ECD-Fc, antibody 0.060 ng/mL
T2 construct: also called human c-Met extracellular domain (ECD)-Fc-Flis fusion; Human cMet-ECD-Fc-Flis
T2 sequence (chain, as listed by the source limits assumed): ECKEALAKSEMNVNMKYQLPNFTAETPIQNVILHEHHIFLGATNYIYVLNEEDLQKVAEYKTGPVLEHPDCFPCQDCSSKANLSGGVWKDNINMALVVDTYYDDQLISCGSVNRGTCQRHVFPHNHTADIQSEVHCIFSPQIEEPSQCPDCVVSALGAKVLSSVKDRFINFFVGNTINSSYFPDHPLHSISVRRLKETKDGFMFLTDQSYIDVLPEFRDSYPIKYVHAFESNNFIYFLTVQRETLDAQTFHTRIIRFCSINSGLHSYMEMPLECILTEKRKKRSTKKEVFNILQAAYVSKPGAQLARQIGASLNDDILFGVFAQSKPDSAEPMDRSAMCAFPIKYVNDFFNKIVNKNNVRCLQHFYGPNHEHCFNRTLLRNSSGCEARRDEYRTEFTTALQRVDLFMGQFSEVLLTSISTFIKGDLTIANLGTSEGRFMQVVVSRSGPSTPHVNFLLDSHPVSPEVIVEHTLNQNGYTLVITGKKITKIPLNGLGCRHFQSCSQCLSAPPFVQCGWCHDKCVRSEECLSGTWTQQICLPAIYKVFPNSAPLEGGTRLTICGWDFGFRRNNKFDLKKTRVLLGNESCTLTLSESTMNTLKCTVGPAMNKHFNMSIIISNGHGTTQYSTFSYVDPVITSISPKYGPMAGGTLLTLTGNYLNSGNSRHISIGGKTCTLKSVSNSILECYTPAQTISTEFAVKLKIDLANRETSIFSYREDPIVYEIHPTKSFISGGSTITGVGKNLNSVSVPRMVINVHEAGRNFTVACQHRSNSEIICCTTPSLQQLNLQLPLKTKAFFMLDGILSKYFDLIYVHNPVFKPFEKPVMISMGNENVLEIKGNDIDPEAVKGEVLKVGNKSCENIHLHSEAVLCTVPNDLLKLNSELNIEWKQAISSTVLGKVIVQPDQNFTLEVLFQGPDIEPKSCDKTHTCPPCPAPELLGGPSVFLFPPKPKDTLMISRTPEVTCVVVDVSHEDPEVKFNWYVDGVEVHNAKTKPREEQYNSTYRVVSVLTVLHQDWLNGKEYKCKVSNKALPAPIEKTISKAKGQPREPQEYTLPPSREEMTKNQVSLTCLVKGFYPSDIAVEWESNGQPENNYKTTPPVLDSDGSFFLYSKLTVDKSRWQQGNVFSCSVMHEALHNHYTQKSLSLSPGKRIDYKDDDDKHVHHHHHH
Description: (§1) Wells of 96-well EIA/RIA high binding plates (Costar, #2592) are coated with 100 μL of 1 μg/mL human c-Met extracellular domain (ECD)-Fc-Flis fusion (SEQ ID NO:72), RON-ECD-Fc (R&D Systems, #1947-MS), or PlexinA2-ECD-Fc (Abnova, Taipei, Taiwan #H00005362-P01) in coating buffer (BioFX Labs, # COAT-1000-01) overnight at 4° C. […] After the plates are washed, 100 μL/well of substrate solution (BioFx, #TMBW-1000-01) are added and the plates are incubated for 10 min. at room temperature. 100 μL/well of stop solution (BioFx, # LSTP-1000-01) are added to stop the reaction. The colorimetric signals are developed and read at 450 nm using a SpectraMax 190 plate reader (Molecular Devices, Sunnyvale, Calif.). c-Met antibody binding to c-Met, RON and PlexinA2 ECDs is proportional to color signal production.

PlexinA2-ECD-Fc = molecular target: T3, PlexinA2-ECD-Fc (human, UniProt O75051 35-1237); test: ELISA, coated ECD-Fc, antibody 0.060 ng/mL
T3 construct: extracellular domain; Bought reagent
T3 sequence (looked up): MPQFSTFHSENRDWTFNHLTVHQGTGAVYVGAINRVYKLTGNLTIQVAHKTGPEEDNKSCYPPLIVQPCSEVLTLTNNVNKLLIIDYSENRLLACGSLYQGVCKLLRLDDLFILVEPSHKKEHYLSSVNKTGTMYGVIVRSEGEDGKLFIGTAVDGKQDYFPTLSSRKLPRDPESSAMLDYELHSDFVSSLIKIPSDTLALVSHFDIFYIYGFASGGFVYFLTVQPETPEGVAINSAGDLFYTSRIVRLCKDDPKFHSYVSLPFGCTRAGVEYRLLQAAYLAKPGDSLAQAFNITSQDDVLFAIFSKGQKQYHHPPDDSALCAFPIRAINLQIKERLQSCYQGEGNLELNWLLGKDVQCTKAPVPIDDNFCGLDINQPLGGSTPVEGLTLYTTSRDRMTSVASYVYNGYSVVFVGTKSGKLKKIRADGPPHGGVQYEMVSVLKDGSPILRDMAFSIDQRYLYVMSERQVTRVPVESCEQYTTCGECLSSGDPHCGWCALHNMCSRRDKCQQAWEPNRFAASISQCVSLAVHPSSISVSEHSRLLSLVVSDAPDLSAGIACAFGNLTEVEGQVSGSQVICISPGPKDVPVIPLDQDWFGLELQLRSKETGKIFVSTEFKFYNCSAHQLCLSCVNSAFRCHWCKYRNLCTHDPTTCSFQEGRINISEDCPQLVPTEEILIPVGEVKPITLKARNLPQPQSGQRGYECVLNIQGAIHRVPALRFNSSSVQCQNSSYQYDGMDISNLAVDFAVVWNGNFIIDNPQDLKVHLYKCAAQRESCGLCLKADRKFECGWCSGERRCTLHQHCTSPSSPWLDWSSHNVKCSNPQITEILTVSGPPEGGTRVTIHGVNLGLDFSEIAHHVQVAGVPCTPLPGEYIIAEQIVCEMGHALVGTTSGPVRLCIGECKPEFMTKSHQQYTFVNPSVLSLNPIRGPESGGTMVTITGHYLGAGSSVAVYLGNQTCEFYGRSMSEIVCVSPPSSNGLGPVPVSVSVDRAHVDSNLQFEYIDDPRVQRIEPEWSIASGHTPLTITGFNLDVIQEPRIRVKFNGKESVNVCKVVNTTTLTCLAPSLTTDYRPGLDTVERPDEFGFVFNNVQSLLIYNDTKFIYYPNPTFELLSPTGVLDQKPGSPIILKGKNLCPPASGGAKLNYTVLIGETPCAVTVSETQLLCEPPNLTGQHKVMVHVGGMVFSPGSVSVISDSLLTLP
Description: as §1

T1 sequence (chain, as listed by the source limits assumed): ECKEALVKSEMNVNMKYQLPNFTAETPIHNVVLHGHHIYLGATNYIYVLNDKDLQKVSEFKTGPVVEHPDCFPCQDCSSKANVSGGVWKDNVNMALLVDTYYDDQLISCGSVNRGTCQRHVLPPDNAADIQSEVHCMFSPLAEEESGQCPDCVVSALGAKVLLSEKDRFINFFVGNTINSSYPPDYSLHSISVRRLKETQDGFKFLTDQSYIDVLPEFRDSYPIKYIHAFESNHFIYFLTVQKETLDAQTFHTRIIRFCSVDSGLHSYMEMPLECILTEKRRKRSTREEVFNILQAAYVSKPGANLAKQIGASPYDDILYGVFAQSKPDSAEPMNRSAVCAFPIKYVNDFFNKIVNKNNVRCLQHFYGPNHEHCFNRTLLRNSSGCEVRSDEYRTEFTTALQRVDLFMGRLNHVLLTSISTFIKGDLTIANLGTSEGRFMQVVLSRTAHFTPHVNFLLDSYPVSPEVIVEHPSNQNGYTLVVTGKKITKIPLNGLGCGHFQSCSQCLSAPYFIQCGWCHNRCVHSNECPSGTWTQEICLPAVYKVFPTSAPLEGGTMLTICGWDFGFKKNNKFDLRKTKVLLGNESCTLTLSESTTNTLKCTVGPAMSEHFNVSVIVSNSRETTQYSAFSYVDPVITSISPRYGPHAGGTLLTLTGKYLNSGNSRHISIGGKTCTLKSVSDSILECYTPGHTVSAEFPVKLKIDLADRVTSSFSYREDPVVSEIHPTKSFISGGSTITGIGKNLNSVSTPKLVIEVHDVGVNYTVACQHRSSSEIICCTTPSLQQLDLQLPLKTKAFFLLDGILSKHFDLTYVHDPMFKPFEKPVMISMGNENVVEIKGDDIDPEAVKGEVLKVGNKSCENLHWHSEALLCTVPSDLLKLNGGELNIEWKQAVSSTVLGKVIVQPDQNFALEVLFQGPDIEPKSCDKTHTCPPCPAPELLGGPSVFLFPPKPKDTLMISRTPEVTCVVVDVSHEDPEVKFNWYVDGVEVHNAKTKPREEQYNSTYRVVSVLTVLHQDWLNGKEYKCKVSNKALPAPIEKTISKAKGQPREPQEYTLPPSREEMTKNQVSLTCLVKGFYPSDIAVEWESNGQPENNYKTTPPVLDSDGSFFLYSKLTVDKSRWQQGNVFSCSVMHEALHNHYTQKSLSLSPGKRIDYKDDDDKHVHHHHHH

B1: C8-6 (antibody, human IgG2, kappa, V domains shown)
VH: QVQLVQSGAEVKKPGASVKVSCKASGYTFTDYYMHWVRQAPGQGLEWMGRVNPNRGGTTYNQKFEGRVTMTTDTSTSTAYMELRSLRSDDTAVYYCARTNWLDYWGQGTTVTVSS
VL: DIQMTQSPSSLSASVGDRVTITCSVSSSVSSIYLHWYQQKPGKAPKLLIYSTSNLASGVPSRFSGSGSGTDFTLTISSLQPEDFATYYCIQYSGYPLTFGGGTKVEIKR
notes: Called IgG4, kappa; also called Mab C8-6
binding result (Rat c-Met-Flis-Fc ECD): no binding
Average A450 nm (Human c-Met-Flis-Fc ECD): 0.551 A450 nm
Average A450 nm (PlexinA2-ECD-Fc): 0.096 A450 nm
